The source of these data is US20260234224A1 (VANDERBILT UNIVERSITY, published 2026).

The test deals with T1, SARS-CoV-2 RBD (SARS-CoV-2, UniProt P0DTC2 319-541).
T1 construct: domain: RBD
As to the kind of experiment: ELISA on recombinant spike subdomains. Background: ELISA stands for enzyme-linked immunosorbent assay.

B1: 71281-31 (antibody, V domains shown)
VH: QVQLVESGGGVVQPGRSLRLSCAASGFTFSRYGMHWVRQAPGKGLEWVAFISYDGDNKYYADSVKGRFTISRDNSKNTLYLQMDSLRTEDTAVYYCAKDPTARLGYCRGGSCYLADYWGQGTLVTVSS
VL: SYVLTQPPSVSVAPAQTARITCGGNNIESKSVHWYQQKPGQAPVLVVYENSDRPSGIPERFSGSNSGNMATLTISRVEAGDEADYYCQVWESSSDHVIFGGGTKLTVL
Regarding B1, the binding result is “binds”.
